± gives the standard deviation of the averaged measurements.
Tested on: ATP
Test: switch fluorescence ratio, 500 uM ATP over buffer (Cy3 cluster intensity, sum of 5 cycles each) (fold (ratio)); higher = stronger signal-on switching upon ATP binding; sequences stand for … in TCGTCGGCAGCGTCAGATGTGTATAAGAGACAGTTTTTTTTTTTTTTTTTTTTTTTTT…TC
Details: aptamer strand: ATP DNA aptamer (quencher-CACCTGGGGGAGTATTGCGGAGGAAGG + anchor), 100 nM annealed; ATP concentration: 500 uM
Procedure, shortened: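 After annealing to 100 nM quencher-labelled ATP aptamer, Cy3-labelled switching-strand clusters on a modified Illumina MiSeq flow-cell were imaged in selection buffer. A second image followed after 15 min with 500 uM ATP at 22 °C, and five such buffer/ATP cycles were done, each separated by NaOH stripping and re-annealing. The fluorescence ratio, averaged per switch-domain sequence, is summed target-cycle over summed buffer-cycle Cy3 intensity per cluster, with clusters outside 100-1000 RFU excluded.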
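Also: ATP exposure 15 min at 22 °C before imaging.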

Sequence | switch fluorescence ratio
CAAGCTTTTT | 0.979 ± 0.032
CAAGGAACGT | 1.01 ± 0.029
CAAGGATGTG | 0.965 ± 0.041
CAAGGCCTGT | 0.971 ± 0.017
CAAGGCTGCA | 1.04 ± 0.06
CAAGGGAATG | 1 ± 0.022
CAAGGGCGGG | 0.997 ± 0.063
CAAGGGGGGT | 1 ± 0.019
CAAGGGTAGG | 1.04 ± 0.021
CAAGGTCAGA | 1.018 ± 0.01
CAAGGTCCAG | 1 ± 0.041
CAAGGTTGTT | 1 ± 0.011
CAAGTAAAAG | 1.01 ± 0.011
CAAGTAGACC | 0.997 ± 0.13
CAAGTAGAGT | 0.9953 ± 0.0059
CAAGTAGGTG | 1.03 ± 0.015
CAAGTCGTTT | 1.017 ± 0.0023
CAAGTCTATG | 0.973 ± 0.036
CAAGTGAATG | 1.01 ± 0.017
CAAGTGCTTG | 1.03 ± 0.014
CAAGTGGCGG | 0.969 ± 0.016
CAAGTGGGGG | 1.02 ± 0.038
CAAGTTAATG | 0.97 ± 0.041
CAAGTTATGT | 1 ± 0.044
CAAGTTGTTT | 0.996 ± 0.021

Sequence | switch fluorescence ratio
CAAGTTTACC | 1.037 ± 0.0023
CAATAAATAG | 1.005 ± 0.006
CAATAAATAT | 0.97 ± 0.032
CAATAAGAGC | 1.09 ± 0.029
CAATAATGTA | 1.03 ± 0.051
CAATACTAAC | 1.32 ± 0.037
CAATAGAGGG | 0.991 ± 0.033
CAATAGCGGT | 1.05 ± 0.02
CAATATCTCC | 2.29 ± 0.16
CAATATTACT | 1.01 ± 0.042
CAATATTCTT | 1.02 ± 0.027
CAATATTTTT | 1 ± 0.015
CAATCTTGGA | 1 ± 0.012
CAATGAGTAT | 1.011 ± 0.003
CAATGCGACA | 1.39 ± 0.078
CAATGGGACC | 1.011 ± 0.0013
CAATGGGGGA | 1.007 ± 0.0018
CAATGGGTAC | 0.969 ± 0.024
CAATGTCCCG | 0.9985 ± 0.0041
CAATGTGACG | 1.03 ± 0.052
CAATGTGGAG | 0.992 ± 0.055
CAATGTTTGC | 1.002 ± 0.0083
CAATTATTTT | 1.02 ± 0.027
CAATTCGATA | 1.02 ± 0.025
CAATTCGTTA | 1.01 ± 0.0035

Sequence | switch fluorescence ratio
CAATTGCATC | 1.02 ± 0.014
CAATTGGATG | 1 ± 0.073
CAATTGGCGT | 0.967 ± 0.021
CAATTGGGTG | 1.06 ± 0.022
CAATTGGTTT | 0.997 ± 0.016
CAATTTCAGC | 0.999 ± 0.025
CAATTTCGGT | 0.996 ± 0.039
CAATTTGGGG | 0.994 ± 0.02
CAATTTTCGG | 0.989 ± 0.022
CACAAGGGCG | 0.94 ± 0.02
CACAAGTTTT | 1.02 ± 0.03
CACACAAAAT | 0.977 ± 0.014
CACACGTTTT | 1.02 ± 0.013
CACAGCTCAC | 1.79 ± 0.065
CACATGTTAT | 1.0197 ± 0.00089
CACATTAACT | 1.094 ± 0.0047
CACATTACAT | 1.28 ± 0.1
CACCATGTTC | 0.989 ± 0.032
CACCCCGCAC | 3.46 ± 0.48
CACCTGATGG | 0.997 ± 0.025
CACCTGTTGC | 1.02 ± 0.011
CACCTTAATT | 1.037 ± 0.0075
CACCTTACGT | 1.45 ± 0.079
CACGAAGGTG | 1.16 ± 0.032
CACGACTCGT | 1 ± 0.011

Sequence | switch fluorescence ratio
CACGAGAACT | 1.1 ± 0.024
CACGAGGGGA | 1.02 ± 0.057
CACGAGTTAG | 1.0257 ± 0.00055
CACGATTTTT | 0.988 ± 0.022
CACGCGGGGA | 1.01 ± 0.041
CACGCTTTTT | 1.15 ± 0.23
CACGGACAGC | 1.41 ± 0.025
CACGGACTGC | 1.42 ± 0.07
CACGGAGGGG | 0.9875 ± 0.0095
CACGGCTCGC | 1.04 ± 0.015
CACGGCTTGG | 0.9744 ± 0.0044
CACGGGATGG | 1.05 ± 0.026
CACGGGGAAG | 1.02 ± 0.047
CACGGGGGA | 0.974 ± 0.025
CACGGGGGGG | 1.02 ± 0.025
CACGGGTATT | 1.013 ± 0.0028
CACGGGTGGC | 1.152 ± 0.011
CACGGGTTCC | 1.03 ± 0.041
CACGGTTGTT | 1.015 ± 0.0074
CACGGTTTGT | 0.985 ± 0.018
CACGTACGGG | 1.59 ± 0.089
CACGTGGGGG | 1.007 ± 0.006
CACGTGTGGT | 0.988 ± 0.036
CACTACGGGA | 1.05 ± 0.012
CACTAGACGG | 1.45 ± 0.064

Sequence | switch fluorescence ratio
CACTAGAGGA | 1.022 ± 0.0057
CACTAGGCGG | 1.0232 ± 0.00067
CACTGATCCT | 1.032 ± 0.0032
CACTGCCTGC | 1.08 ± 0.036
CACTGGCCGA | 1.035 ± 0.01
CACTGGGGGT | 1.03 ± 0.019
CACTGGGGTT | 0.988 ± 0.017
CACTGTATCG | 1.13 ± 0.063
CACTGTGGGT | 0.9744 ± 0.0046
CACTTTACTT | 1.28 ± 0.072
CACTTTCATG | 1.013 ± 0.0021
CACTTTGGGG | 0.971 ± 0.0062
CAGAACAGCT | 1.029 ± 0.0039
CAGAAGGGGA | 1.09 ± 0.079
CAGAAGTCTC | 1 ± 0.014
CAGAATGGGG | 0.998 ± 0.014
CAGAATTGTG | 1.02 ± 0.012
CAGACGCGGG | 0.99 ± 0.057
CAGACTTCGG | 0.934 ± 0.016
CAGAGATGGG | 0.9997 ± 0.0049
CAGAGATGTT | 1.01 ± 0.032
CAGAGATTTT | 1.005 ± 0.0029
CAGAGGCGTG | 0.9831 ± 0.0079
CAGAGGGGTT | 1 ± 0.021
CAGAGTAGGG | 0.969 ± 0.049

Sequence | switch fluorescence ratio
CAGAGTCCTC | 1.01 ± 0.027
CAGAGTCTGG | 1.04 ± 0.024
CAGAGTGCTG | 1.06 ± 0.03
CAGATATTGG | 1.02 ± 0.023
CAGATATTTC | 1.02 ± 0.021
CAGATGACAG | 0.997 ± 0.012
CAGATGGTTG | 0.9835 ± 0.0041
CAGATGTGAC | 1.057 ± 0.0061
CAGATTATGT | 1.01 ± 0.055
CAGATTGCTC | 0.982 ± 0.037
CAGATTTCTA | 1.02 ± 0.019
CAGCATGGGT | 1.025 ± 0.0034
CAGCCTTATT | 0.997 ± 0.029
CAGCGATTTA | 1.02 ± 0.053
CAGCGCGTCT | 1.07 ± 0.06
CAGCGGCTGT | 0.966 ± 0.026
CAGCGGGGGC | 1.01 ± 0.016
CAGCGGTAGG | 1.03 ± 0.016
CAGCTGGAGC | 1 ± 0.017
CAGCTTTCGG | 1.03 ± 0.048
CAGGAGAGGG | 1.02 ± 0.029
CAGGAGCATT | 3.09 ± 1.5
CAGGAGGGGA | 1.01 ± 0.011
CAGGATAAAT | 0.979 ± 0.06
CAGGATCTTG | 0.974 ± 0.031

Sequence | switch fluorescence ratio
CAGGCAGTTT | 1.01 ± 0.016
CAGGCGGAAA | 0.98 ± 0.015
CAGGCGGGGA | 1.004 ± 0.0074
CAGGCGGTTT | 0.969 ± 0.029
CAGGCTAAGA | 1.026 ± 0.0047
CAGGCTTTGC | 0.992 ± 0.076
CAGGGAGACG | 1.12 ± 0.047
CAGGGAGCAG | 1.05 ± 0.03
CAGGGAGCCT | 0.988 ± 0.05
CAGGGAGGGG | 0.995 ± 0.032
CAGGGAGGGT | 0.983 ± 0.014
CAGGGCAATG | 1.2 ± 0.045
CAGGGCAGCC | 1.01 ± 0.03
CAGGGCCATG | 1.009 ± 0.0014
CAGGGCTGGT | 0.976 ± 0.015
CAGGGGAGGG | 1.06 ± 0.09
CAGGGGGCCA | 0.984 ± 0.033
CAGGGGGGAG | 0.992 ± 0.035
CAGGGGGGGC | 1.01 ± 0.026
CAGGGGGTAC | 1.09 ± 0.086
CAGGGGGTCC | 1.01 ± 0.022
CAGGGGGTGC | 1.03 ± 0.072
CAGGGGGTGT | 1.03 ± 0.032
CAGGGGTGAT | 1.18 ± 0.19
CAGGGGTGGC | 0.9529 ± 0.0021

Sequence | switch fluorescence ratio
CAGGGGTTGG | 1.02 ± 0.028
CAGGGGTTGT | 1.21 ± 0.31
CAGGGGTTTA | 1.03 ± 0.034
CAGGGTAACT | 1.04 ± 0.066
CAGGGTACGA | 1.05 ± 0.012
CAGGGTGAGA | 1.04 ± 0.016
CAGGGTGGGT | 1.02 ± 0.05
CAGGGTTAGG | 1.01 ± 0.026
CAGGTAAAGG | 1.01 ± 0.022
CAGGTAAGGA | 0.969 ± 0.01
CAGGTAGGAG | 0.985 ± 0.017
CAGGTATGTT | 1 ± 0.016
CAGGTCATTA | 0.9784 ± 0.0076
CAGGTGGTCA | 1 ± 0.021
CAGGTGTGGA | 1.044 ± 0.0053
CAGGTTAGGT | 1.004 ± 0.01
CAGGTTATGG | 0.958 ± 0.042
CAGGTTGCAC | 0.9894 ± 0.0069
CAGGTTTTGT | 1.01 ± 0.036
CAGTAAGTGG | 0.999 ± 0.02
CAGTAATTTT | 0.999 ± 0.013
CAGTACGGGG | 1 ± 0.01
CAGTAGCTGT | 1.204 ± 0.0022
CAGTCCGGGA | 1.101 ± 0.0079
CAGTCTGGGG | 0.964 ± 0.012

— the supplement of paper PMC10126150
